# Test results as given in the MegaScale stability set (Tsuboyama et al. 2023).
# B1: r16_88_TrROS_Hall (parent)
# chain: EVIELKIKFKTPEQREKLKEIAKKLNAEVVEEKDGEVIIRFKTPEQAERALKEAEKLGAEVEL
# Variants of: B1
# Assay: folding stability dG (cDNA display proteolysis); higher = more stable
# Settings: PBS, room temperature
row,Variant,folding stability dG [kcal/mol]
1,EVIELKIKFKTPEQREKLKEIAKKLNAEVVIEKDGEVIIRFKTPEQAERALKEAEKLGAEVEL [E31I],4.45
2,EVIELKIKFKTPEQREKLKEIAKKLNAEVVWEKDGEVIIRFKTPEQAERALKEAEKLGAEVEL [E31W],4.68
3,EVIELKIKFKTPEQREKLKEIAKKLNAEVVHEKDGEVIIRFKTPEQAERALKEAEKLGAEVEL [E31H],4.63
4,EVIELKIKFKTPEQREKLKEIAKKLNAEVVTEKDGEVIIRFKTPEQAERALKEAEKLGAEVEL [E31T],4.35
5,EVIELKIKFKTPEQREKLKEIAKKLNAEVVNEKDGEVIIRFKTPEQAERALKEAEKLGAEVEL [E31N],4.49
6,EVIELKIKFKTPEQREKLKEIAKKLNAEVVPEKDGEVIIRFKTPEQAERALKEAEKLGAEVEL [E31P],4.06
7,EVIELKIKFKTPEQREKLKEIAKKLNAEVVLEKDGEVIIRFKTPEQAERALKEAEKLGAEVEL [E31L],4.62
8,EVIELKIKFKTPEQREKLKEIAKKLNAEVVSEKDGEVIIRFKTPEQAERALKEAEKLGAEVEL [E31S],4.6
9,EVIELKIKFKTPEQREKLKEIAKKLNAEVVAEKDGEVIIRFKTPEQAERALKEAEKLGAEVEL [E31A],4.29
10,EVIELKIKFKTPEQREKLKEIAKKLNAEVVFEKDGEVIIRFKTPEQAERALKEAEKLGAEVEL [E31F],4.61
11,EVIELKIKFKTPEQREKLKEIAKKLNAEVVVEKDGEVIIRFKTPEQAERALKEAEKLGAEVEL [E31V],4.37
12,EVIELKIKFKTPEQREKLKEIAKKLNAEVVQEKDGEVIIRFKTPEQAERALKEAEKLGAEVEL [E31Q],4.57
13,EVIELKIKFKTPEQREKLKEIAKKLNAEVVCEKDGEVIIRFKTPEQAERALKEAEKLGAEVEL [E31C],4.51
14,EVIELKIKFKTPEQREKLKEIAKKLNAEVVREKDGEVIIRFKTPEQAERALKEAEKLGAEVEL [E31R],4.35
15,EVIELKIKFKTPEQREKLKEIAKKLNAEVVMEKDGEVIIRFKTPEQAERALKEAEKLGAEVEL [E31M],4.37
16,EVIELKIKFKTPEQREKLKEIAKKLNAEVVYEKDGEVIIRFKTPEQAERALKEAEKLGAEVEL [E31Y],4.46
17,EVIELKIKFKTPEQREKLKEIAKKLNAEVVGEKDGEVIIRFKTPEQAERALKEAEKLGAEVEL [E31G],4.41
18,EVIELKIKFKTPEQREKLKEIAKKLNAEVVDEKDGEVIIRFKTPEQAERALKEAEKLGAEVEL [E31D],4.45
19,EVIELKIKFKTPEQREKLKEIAKKLNAEVVKEKDGEVIIRFKTPEQAERALKEAEKLGAEVEL [E31K],4.34
20,EVIELKIKFKTPEQREKLKEIAKKLNAEVNEEKDGEVIIRFKTPEQAERALKEAEKLGAEVEL [V30N],4.52
21,EVIELKIKFKTPEQREKLKEIAKKLNAEVREEKDGEVIIRFKTPEQAERALKEAEKLGAEVEL [V30R],4.42

row,Variant,folding stability dG [kcal/mol]
1,EVIELKIKFKTPEQREKLKEIAKKLNAEVPEEKDGEVIIRFKTPEQAERALKEAEKLGAEVEL [V30P],4.07
2,EVIELKIKFKTPEQREKLKEIAKKLNAEVEEEKDGEVIIRFKTPEQAERALKEAEKLGAEVEL [V30E],4.59
3,EVIELKIKFKTPEQREKLKEIAKKLNAEVQEEKDGEVIIRFKTPEQAERALKEAEKLGAEVEL [V30Q],4.3
4,EVIELKIKFKTPEQREKLKEIAKKLNAEVCEEKDGEVIIRFKTPEQAERALKEAEKLGAEVEL [V30C],4.38
5,EVIELKIKFKTPEQREKLKEIAKKLNAEVTEEKDGEVIIRFKTPEQAERALKEAEKLGAEVEL [V30T],4.39
6,EVIELKIKFKTPEQREKLKEIAKKLNAEVLEEKDGEVIIRFKTPEQAERALKEAEKLGAEVEL [V30L],4.44
7,EVIELKIKFKTPEQREKLKEIAKKLNAEVDEEKDGEVIIRFKTPEQAERALKEAEKLGAEVEL [V30D],4.27
8,EVIELKIKFKTPEQREKLKEIAKKLNAEVHEEKDGEVIIRFKTPEQAERALKEAEKLGAEVEL [V30H],4.35
9,EVIELKIKFKTPEQREKLKEIAKKLNAEVAEEKDGEVIIRFKTPEQAERALKEAEKLGAEVEL [V30A],4.58
10,EVIELKIKFKTPEQREKLKEIAKKLNAEVKEEKDGEVIIRFKTPEQAERALKEAEKLGAEVEL [V30K],4.48
11,EVIELKIKFKTPEQREKLKEIAKKLNAEVFEEKDGEVIIRFKTPEQAERALKEAEKLGAEVEL [V30F],4.61
12,EVIELKIKFKTPEQREKLKEIAKKLNAEVMEEKDGEVIIRFKTPEQAERALKEAEKLGAEVEL [V30M],4.49
13,EVIELKIKFKTPEQREKLKEIAKKLNAEVIEEKDGEVIIRFKTPEQAERALKEAEKLGAEVEL [V30I],4.46
14,EVIELKIKFKTPEQREKLKEIAKKLNAEVYEEKDGEVIIRFKTPEQAERALKEAEKLGAEVEL [V30Y],4.42
15,EVIELKIKFKTPEQREKLKEIAKKLNAEVGEEKDGEVIIRFKTPEQAERALKEAEKLGAEVEL [V30G],4.26
16,EVIELKIKFKTPEQREKLKEIAKKLNAEVWEEKDGEVIIRFKTPEQAERALKEAEKLGAEVEL [V30W],4.39
17,EVIELKIKFKTPEQREKLKEIAKKLNAEVSEEKDGEVIIRFKTPEQAERALKEAEKLGAEVEL [V30S],4.51
18,EVIELKIKFKTPEQREKLKEIAKKLNAEVVEDKDGEVIIRFKTPEQAERALKEAEKLGAEVEL [E32D],4.39
19,EVIELKIKFKTPEQREKLKEIAKKLNAEVVEAKDGEVIIRFKTPEQAERALKEAEKLGAEVEL [E32A],4.34
20,EVIELKIKFKTPEQREKLKEIAKKLNAEVVEKKDGEVIIRFKTPEQAERALKEAEKLGAEVEL [E32K],4.45
21,EVIELKIKFKTPEQREKLKEIAKKLNAEVVEGKDGEVIIRFKTPEQAERALKEAEKLGAEVEL [E32G],4.46
